Experimental data: publication PMC5018210 (Nature, 2016)

Target: the molecule itself
Assay: SEC-MALS

B1: MHV S ectodomain trimer (murine hepatitis virus spike glycoprotein ectodomain, R717S, fused to a GCN4 trimerization motif) (domain or fragment)
chain: YIGDFRCIQLVNSNGANVSAPSISTETVEVSQGLGTYYVLDRVYLNATLLLTGYYPVDGSKFRNLALRGTNSVSLSWFQPPYLNQFNDGIFAKVQNLKTSTPSGATAYFPTIVIGSLFGYTSYTVVIEPYNGVIMASVCQYTICQLPYTDCKPNTNGNKLIGFWHTDVKPPICVLKRNFTLNVNADAFYFHFYQHGGTFYAYYADKPSATTFLFSVYIGDILTQYYVLPFICNPTAGSTFAPRYWVTPLVKRQYLFNFNQKGVITSAVDCASSYTSEIKCKTQSMLPSTGVYELSGYTVQPVGVVYRRVANLPACNIEEWLTARSVPSPLNWERKTFQNCNFNLSSLLRYVQAESLFCNNIDASKVYGRCFGSISVDKFAVPRSRQVDLQLGNSGFLQTANYKIDTAATSCQLHYTLPKNNVTINNHNPSSWNRRYGFNDAGVFGKNQHDVVYAQQCFTVRSSYCPCAQPDIVSPCTTQTKPKSAFVNVGDHCEGLGVLEDNCGNADPHKGCICANNSFIGWSHDTCLVNDRCQIFANILLNGINSGTTCSTDLQLPNTEVVTGICVKYDLYGITGQGVFKEVKADYYNSWQTLLYDVNGNLNGFRDLTTNKTYTIRSCYSGRVSAAFHKDAPEPALLYRNINCSYVFSNNISREENPLNYFDSYLGCVVNADNRTDEALPNCDLRMGAGLCVDYSKSRRAHSSVSTGYRLTTFEPYTPMLVNDSVQSVDGLYEMQIPTNFTIGHHEEFIQTRSPKVTIDCAAFVCGDNTACRQQLVEYGSFCVNVNAILNEVNNLLDNMQLQVASALMQGVTISSRLPDGISGPIDDINFSPLLGCIGSTCAEDGNGPSAIRGRSAIEDLLFDKVKLSDVGFVEAYNNCTGGQEVRDLLCVQSFNGIKVLPPVLSESQISGYTTGATAAAMFPPWSAAAGVPFSLSVQYRINGLGVTMNVLSENQKMIASAFNNALGAIQDGFDATNSALGKIQSVVNANAEALNNLLNQLSNRFGAISASLQEILTRLEAVEAKAQIDRLINGRLTALNAYISKQLSDSTLIKVSAAQAIEKVNECVKSQTTRINFCGNGNHILSLVQNAPYGLYFIHFSYVPISFTTANVSPGLCISGDRGLAPKAGYFVQDDGEWKFTGSSYYYPEPITDKNSVIMSSCAVNYTKAPEVFLNTSIPNPPDFKEELDKWFKNQTSIAPDLSLDFEKLNVTLLDLIKRMKQIEDKIEEIESKQKKIENEIARIKKIKLVPRGSLE
stoichiometry N: 3
